Measurements from the Immune Epitope Database (IEDB).

Columns and labels:
HLA-A*02:01 [1] = assay: IEDB peptide-MHC binding, purified MHC/competitive/fluorescence; ≥ and ≤ were set here for values at or beyond the usual limits of such assays
HLA-A*24:02 = assay: as above
HLA-B*07:02 [2] = assay: IEDB peptide-MHC binding, purified MHC/competitive/radioactivity; filed as Kd, often an IC50 or EC50 that approximates it; ≥ and ≤ were set here for values at or beyond the usual limits of such assays
HLA-B*35:01 = assay: as above
HLA-B*51:01 = assay: as above
HLA-B*53:01 = assay: as above
HLA-B*54:01 = assay: as above
HLA-A*03:01 [3] = assay: IEDB peptide-MHC binding, purified MHC/competitive/fluorescence; filed as Kd, often an IC50 or EC50 that approximates it; ≥ and ≤ were set here for values at or beyond the usual limits of such assays
HLA-A*02:01 [4] = assay: IEDB peptide-MHC binding, purified MHC/direct/fluorescence; filed as Kd, often an IC50 or EC50 that approximates it; ≥ and ≤ were set here for values at or beyond the usual limits of such assays
HLA-A*02:12 = assay: as above; conditions: source organism: Ravn virus - Ravn, Kenya, 1987
HLA-A*69:01 = assay: as above
HLA-A*01:01 = assay: as above
HLA-A*03:01 [5] = assay: as above
HLA-A*11:01 = assay: as above
HLA-A*26:01 = assay: as above
HLA-A*31:01 = assay: as above
HLA-B*07:02 [6] = assay: as above
HLA-B*08:01 = assay: as above
HLA-B*15:01 = assay: as above
HLA-B*27:05 = assay: as above
HLA-B*40:01 = assay: as above
HLA-B*44:02 = assay: as above
HLA-B*58:01 = assay: as above
[7] = source organism: Sudan ebolavirus
[8] = source organism: Lymphocytic choriomeningitis virus (strain WE)
[9] = source organism: Mammarenavirus choriomeningitidis
[10] = source organism: Vaccinia virus WR
[11] = source organism: Ebola virus - Mayinga, Zaire, 1976
[12] = source organism: Giardia lamblia ATCC 50803
[13] = source organism: Zaire ebolavirus
[14] = source organism: Mammarenavirus lassaense
[15] = source organism: Coxiella burnetii

EGIYTEGLM was tested, and the IC50 (HLA-A*02:01 [1]; [7]) was 33.4 µM and the IC50 (HLA-A*24:02; [7]) was 15 µM.
Work on EPVESCPLM yielded a Kd (HLA-B*07:02 [2]; [8]) of 5.1 µM, a Kd (HLA-B*35:01; [8]) of 0.0267 µM and a Kd (HLA-B*51:01; [8]) of 1.92 µM. For the same sequence, the Kd (HLA-B*53:01; [8]) was 0.177 µM and the Kd (HLA-B*54:01; [8]) was ≥ 78.1 µM.
In the case of ETMEVVQQTR, the Kd (HLA-A*03:01 [3]; source organism: Influenza A virus (A/Fort Monmouth/1/1947-mouse adapted(H1N1))) is reported as ≥ 20 µM.
With FATCGLFAL the Kd (HLA-B*07:02 [2]; [9]) was 8.62 µM, the Kd (HLA-B*35:01; [9]) was 0.736 µM and the Kd (HLA-B*51:01; [9]) was ≥ 27 µM. It also gave a Kd (HLA-B*53:01; [9]) of 8.69 µM and a Kd (HLA-B*54:01; [9]) of 6.3 µM.
HPLSINVSGV was tested, and the Kd (HLA-B*07:02 [2]; [10]) was 3.84 µM, the Kd (HLA-B*35:01; [10]) was ≥ 54.2 µM and the Kd (HLA-B*51:01; [10]) was ≥ 29.6 µM. For the same sequence, the Kd (HLA-B*53:01; [10]) was 18.8 µM and the Kd (HLA-B*54:01; [10]) was 0.12 µM.
IISDLSIFI was tested, and the Kd (HLA-A*02:01 [4]; [11]) was 0.003 µM, the Kd (HLA-A*02:12) was 0.069 µM and the Kd (HLA-A*69:01; [11]) was 0.0323 µM.
For IPFDDIVRTM, the Kd (HLA-B*07:02 [2]; [10]) was 2.94 µM, the Kd (HLA-B*35:01; [10]) was 0.192 µM and the Kd (HLA-B*51:01; [10]) was 8.69 µM. For the same sequence, the Kd (HLA-B*53:01; [10]) was 1.02 µM and the Kd (HLA-B*54:01; [10]) was 4.25 µM.
With IPVDLVKSSF the Kd (HLA-B*07:02 [2]; [10]) was 0.0205 µM, the Kd (HLA-B*35:01; [10]) was 0.00543 µM and the Kd (HLA-B*51:01; [10]) was 5.38 µM. The Kd (HLA-B*53:01; [10]) was 0.00861 µM and the Kd (HLA-B*54:01; [10]) was 0.297 µM.
KISGSFSPH gave a Kd (HLA-A*03:01 [3]; source organism: Cryptosporidium parvum Iowa II) of 0.0369 µM.
With KLADMSIYC the Kd (HLA-A*01:01; [12]) was ≥ 20 µM, the Kd (HLA-A*02:01 [4]; [12]) was 0.0427 µM and the Kd (HLA-A*03:01 [5]; [12]) was 4.2 µM. The Kd (HLA-A*11:01; [12]) was ≥ 20 µM, the Kd (HLA-A*26:01; [12]) was ≥ 20 µM and the Kd (HLA-A*31:01; [12]) was ≥ 20 µM. For the same sequence, the Kd (HLA-A*69:01; [12]) was ≥ 20 µM, the Kd (HLA-B*07:02 [6]; [12]) was ≥ 20 µM and the Kd (HLA-B*08:01; [12]) was ≥ 20 µM. The Kd (HLA-B*15:01; [12]) was 4 µM, the Kd (HLA-B*27:05; [12]) was ≥ 20 µM and the Kd (HLA-B*40:01; [12]) was ≥ 20 µM. For the same sequence, the Kd (HLA-B*44:02; [12]) was ≥ 20 µM and the Kd (HLA-B*58:01; [12]) was ≥ 20 µM.
For KPKFCLIDGM, the Kd (HLA-B*07:02 [2]; [10]) was 0.0802 µM, the Kd (HLA-B*35:01; [10]) was ≥ 22.4 µM and the Kd (HLA-B*51:01; [10]) was ≥ 69.6 µM. It also gave a Kd (HLA-B*53:01; [10]) of 11.9 µM and a Kd (HLA-B*54:01; [10]) of 14.5 µM.
For KQLQQYAES, the IC50 (HLA-A*02:01 [1]; [13]) was ≥ 187 µM and the IC50 (HLA-A*24:02; [13]) was 20.8 µM.
KVYTMDGEY showed a Kd (HLA-A*03:01 [3]; source organism: West Nile virus) of 0.0376 µM.
In the case of KYNTPCPNC, the IC50 (HLA-A*24:02; source organism: Vaccinia virus) is reported as 35.5 µM.
For LPESDLDKV, the Kd (HLA-B*07:02 [2]; [10]) was 7.81 µM, the Kd (HLA-B*35:01; [10]) was ≥ 22.6 µM and the Kd (HLA-B*51:01; [10]) was 6.57 µM. It also gave a Kd (HLA-B*53:01; [10]) of 7.28 µM and a Kd (HLA-B*54:01; [10]) of 2.29 µM.
Work on MPDCGMSVLA yielded a Kd (HLA-B*07:02 [2]; [14]) of 3.88 µM, a Kd (HLA-B*35:01; [14]) of 0.0922 µM and a Kd (HLA-B*51:01; [14]) of 9.18 µM. It also gave a Kd (HLA-B*53:01; [14]) of 0.442 µM and a Kd (HLA-B*54:01; [14]) of 0.105 µM.
For MVAWRVTMH, the Kd (HLA-A*03:01 [3]; source organism: Toxoplasma gondii) was 0.0481 µM.
NPDNTIAVI was tested, and the Kd (HLA-B*07:02 [2]; [10]) was 0.233 µM, the Kd (HLA-B*35:01; [10]) was 0.00265 µM and the Kd (HLA-B*51:01; [10]) was 1.73 µM. It also gave a Kd (HLA-B*53:01; [10]) of 0.00142 µM and a Kd (HLA-B*54:01; [10]) of 2.21 µM.
For NPTSETMYL, the Kd (HLA-B*07:02 [2]; [10]) was 0.116 µM, the Kd (HLA-B*35:01; [10]) was 0.0592 µM and the Kd (HLA-B*51:01; [10]) was ≥ 60.7 µM. For the same sequence, the Kd (HLA-B*53:01; [10]) was 0.0042 µM and the Kd (HLA-B*54:01; [10]) was ≥ 37.5 µM.
PEIRRWIIF was tested, and the Kd (HLA-A*01:01; [15]) was ≥ 20 µM, the Kd (HLA-A*02:01 [4]; [15]) was ≥ 20 µM and the Kd (HLA-A*03:01 [5]; [15]) was ≥ 20 µM. For the same sequence, the Kd (HLA-A*11:01; [15]) was ≥ 20 µM, the Kd (HLA-A*26:01; [15]) was ≥ 20 µM and the Kd (HLA-A*31:01; [15]) was ≥ 20 µM. The Kd (HLA-A*69:01; [15]) was ≥ 20 µM, the Kd (HLA-B*07:02 [6]; [15]) was ≥ 20 µM and the Kd (HLA-B*08:01; [15]) was ≥ 20 µM. For the same sequence, the Kd (HLA-B*15:01; [15]) was ≥ 20 µM, the Kd (HLA-B*27:05; [15]) was ≥ 20 µM and the Kd (HLA-B*40:01; [15]) was 5.64 µM. For the same sequence, the Kd (HLA-B*44:02; [15]) was ≥ 20 µM and the Kd (HLA-B*58:01; [15]) was ≥ 20 µM.
